From patent US20090068174A1, “THERAPEUTIC ALKALINE PROTEASE COMPOSITIONS AND USE IN FACILITATING THE TRANSPORT OF AGENTS ACROSS THE GASTROINTESTINAL MUCOSAL LINING” (Kansas University Medical Center Research Institute, Inc., priority 2007, published 2009) come the findings set out here.

The experiment has as its target T1, mouse recombinant TNF-α (Mus musculus, UniProt P06804).
T1 sequence (P06804 80-235 limits assumed): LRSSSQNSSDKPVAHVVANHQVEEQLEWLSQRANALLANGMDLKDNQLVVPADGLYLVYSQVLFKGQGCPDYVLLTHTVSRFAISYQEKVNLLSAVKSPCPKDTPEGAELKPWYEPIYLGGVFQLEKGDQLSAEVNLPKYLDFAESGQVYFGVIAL
Put plainly: Bioactivity of protease-treated mouse TNF-α in the C2C12 cell bioassay (nitrite). It counts as cell-based. Particulars: C2C12 cells, NO (nitrite) production. The procedure:
Effects of three purified A. oryzae proteases on the bioactivity of mouse TNF-α (A) protease powder prepared according to Example 1 (preparation); (B) alkaline protease; (C) 26 kDa protease; and (D) deuterolysin. 50 ng quantities of TNF-α were incubated at 37° C. for 24 hours with the indicated quantities of the protease powder prepared according to Example 1 or one of the three purified proteases. The reactions were then stopped by addition of FBS and samples were added to C2C12 cells that had been costimulated with mouse IFN-γ. Twenty-four hours later, nitrite was measured in culture fluids.
The protease powder prepared according to Example 1 inactivates mouse recombinant TNF-α. 50 ng of the cytokine was treated for 24 hours with either 0 (□); 5 (∘); or 10 ng ([…]) of either Pseudomonas elastase (A) or protease powder prepared according to Example 1 (B). Then the residual bioactivity of the cytokine was measured by its ability to co-activate mouse C2C12 myoblast cells in the presence of excess IFN-γ for the production of NO (nitrite).
The protease powder prepared according to Example 1 inactivates mouse recombinant TNF-α by limited proteolysis. […]

With “Pseudomonas elastase: Pseudomonas protease used as a positive control [reference compound]”, the “Effect on bioactivity of mouse TNF-α” value was “led to a loss of its biological activity”.
